Laboratory results reported in patent US11666671B2, “Spatial mapping of kidney functions” (Northwestern University, priority 2018, dated 2023).
Like-named read-outs stand apart in the source and are kept apart here.

Key:
[1] = Conventional renal scintigraphy (renogram) with radionuclide-bound tracers (FIG. 1)
Excerpt: FIG. 1 is a low-resolution renogram of a patient using conventional radionuclide-bound tracer ^99mTc DTPA with renal scintigraphy.

[2] = mouse, in vivo
[3] = not given; remark: listed apart in the source
[4] = not given; remark: listed apart in the source
[5] = Renal histology (immunofluorescence) and renal tubular handling of the carriers (FIGS. 3, 4); conditions: ^99mTc/HYNIC-labelled carriers
FcRn = test: Binding of Fc to FcRn on renal tubular epithelial cells; format: in vivo; conditions: surface of renal tubular epithelial cells
[6] = steady state, from 45 min onward, FIG. 8A

O=C([O-])CN(CCN(CC(=O)[O-])CC(=O)[O-])CCN(CC(=O)[O-])CC(=O)[O-].[99Tc+4] [^99mTc DTPA, ^99mTc Diethylenetriamine-Pentaacetic Acid]
time to wash out of the system [1]: ≤ 20 min

PBT-Fc carrier moiety: N-terminal His6 tag, PBT from human VEGFA (amino acids 131-163), and Fc of human IgG1, expressed in E. coli
distribution of the probe in renal histology (immunofluorescence) [2]: mainly in the tubular basement membrane

^99mTc/HYNIC/PBT-Fc: ^99mTc as the detection moiety, HYNIC as the chelation moiety, and PBT-Fc as the carrier moiety
renal fate / urinary excretion of the agent (after administration to test subjects): fixed (e.g., permanently) at the basement membrane of the downstream renal tubules without being further excreted into urine | time after which radio signals accumulated in the kidney reach the plateau (glomerular filtration phase, tail vein injection): 10 to 20 min | time the agent stayed in the subject's system for steady state imaging ([3]; FIG. 7): 60 min | renal fate / urinary excretion of the agent ([3]; FIG. 7, steady state): concentrated in the kidney without being excreted into urine | kidney retention compared with Fc-alone and Duramycin agents ([3]; FIGS. 6 and 7): accumulate and remain the kidneys of the subjects for much longer than that of the Fc-alone and Duramycin agents | intrarenal localization (section view) ([4]; FIG. 8B): localization of PBT-Fc to the kidney cortex | ^99mTc signal in liver and bladder [4, 6]: low levels of signal accumulation in the liver and the bladder | ^99mTc signal in the kidney [4, 6]: concentrated in the kidney | renal tubular handling / fate of the carrier [5]: “trapped” in the tubular basement membrane (TBM)

Fc: imaging agent using ^99mTc as detection moiety, HYNIC as chelation moiety, and Fc alone as carrier moiety [reference compound]
FcRn binding (FcRn): binds the FcRn on the surface of renal tubular epithelial cells | renal tubular handling / fate of the carrier [5]: reenters blood circulation via peritubular capillaries
